This experiment addresses SARS-CoV-1 spike (S) receptor binding domain (SARS-CoV-1). The experiment can be described thus: SPR. Background: Surface plasmon resonance follows binding to a sensor surface in real time, without labels.

parental VHH-72-Fc (Fc fusion) displayed a koff of 0.00021 s⁻¹.

By koff is commonly meant the first-order rate constant of dissociation. The low end stands for a long-lived complex, the high end for a short-lived complex.

Values taken from paper PMC8967028.
